How the values were obtained:
AncSZ = assay: phosphorylation enrichment, bacterial display (enrichment ratio); higher = better substrate or ligand; peptides without Tyr show the background
EPHB1 = EPHB1 (UniProt P54762); assay: as above
EPHB2 = EPHB2 (UniProt P29323); assay: as above
FGFR1 = FGFR1 (UniProt P11362); assay: as above
FGFR3 = FGFR3 (UniProt P22607); assay: as above
Fer (mouse) = assay: as above
Fes = Fes (UniProt P07332); assay: as above
Fyn = Fyn (UniProt P06241); assay: as above
Hck = Hck (UniProt P08631); assay: as above
Jak2 = Jak2 (UniProt O60674); assay: as above
MERTK = MERTK (UniProt Q12866); assay: as above
c-Abl (mouse) = assay: as above
c-Src = assay: as above
Grb2 SH2 = Grb2 SH2 (UniProt P62993); assay: SH2 binding enrichment of the phosphorylated peptide, bacterial display (enrichment ratio); higher = better substrate or ligand; peptides without Tyr show the background
SHP2-C SH2 = assay: as above
c-Src SH2 = assay: as above
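Throughout, for SH2 binding enrichment of the phosphorylated peptide, bacterial display: peptide library displayed on the E. coli surface as eCPX fusions, selected cells deep-sequenced, score is each peptide's frequency after selection divided by its frequency in the input.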
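Throughout, for phosphorylation enrichment, bacterial display: 11-residue human phosphosite peptides and single-mutation variants displayed on the E. coli surface, counted by deep sequencing, each peptide's frequency after selection divided by its frequency in the unselected input library; frequency after pTyr selection over input frequency; kinase dosed for 20-30% of maximal phosphorylation in three min.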

Hck, sequence (P08631 whole entry, looked up): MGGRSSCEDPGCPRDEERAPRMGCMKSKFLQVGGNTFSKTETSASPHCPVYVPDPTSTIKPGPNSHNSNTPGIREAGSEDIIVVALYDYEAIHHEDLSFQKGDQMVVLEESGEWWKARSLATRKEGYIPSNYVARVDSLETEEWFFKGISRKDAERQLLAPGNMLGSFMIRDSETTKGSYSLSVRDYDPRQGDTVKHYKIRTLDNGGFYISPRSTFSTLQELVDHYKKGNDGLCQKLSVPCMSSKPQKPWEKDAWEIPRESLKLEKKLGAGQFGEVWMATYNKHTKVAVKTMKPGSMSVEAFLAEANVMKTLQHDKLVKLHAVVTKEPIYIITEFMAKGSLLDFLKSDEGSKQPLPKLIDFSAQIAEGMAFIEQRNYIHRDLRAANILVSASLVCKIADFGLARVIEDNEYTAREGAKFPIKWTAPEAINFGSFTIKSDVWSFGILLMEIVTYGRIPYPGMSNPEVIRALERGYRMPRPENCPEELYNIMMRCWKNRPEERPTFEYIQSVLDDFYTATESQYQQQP
Fyn, sequence (P06241 whole entry, looked up): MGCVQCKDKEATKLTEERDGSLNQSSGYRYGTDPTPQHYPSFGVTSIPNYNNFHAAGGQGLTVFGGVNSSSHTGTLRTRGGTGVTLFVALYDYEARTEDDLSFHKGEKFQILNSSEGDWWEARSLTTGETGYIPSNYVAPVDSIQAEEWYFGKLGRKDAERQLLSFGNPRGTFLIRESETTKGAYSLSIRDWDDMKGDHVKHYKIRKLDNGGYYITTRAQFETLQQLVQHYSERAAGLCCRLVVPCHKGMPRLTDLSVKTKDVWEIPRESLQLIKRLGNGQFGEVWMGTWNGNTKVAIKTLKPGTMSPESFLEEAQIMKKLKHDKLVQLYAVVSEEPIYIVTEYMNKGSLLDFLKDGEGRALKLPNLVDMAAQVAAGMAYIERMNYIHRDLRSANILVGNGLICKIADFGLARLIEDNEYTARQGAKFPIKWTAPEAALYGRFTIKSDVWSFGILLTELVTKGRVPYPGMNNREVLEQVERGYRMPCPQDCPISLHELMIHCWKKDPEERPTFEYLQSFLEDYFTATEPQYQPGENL
Fes, sequence (P07332 whole entry, looked up): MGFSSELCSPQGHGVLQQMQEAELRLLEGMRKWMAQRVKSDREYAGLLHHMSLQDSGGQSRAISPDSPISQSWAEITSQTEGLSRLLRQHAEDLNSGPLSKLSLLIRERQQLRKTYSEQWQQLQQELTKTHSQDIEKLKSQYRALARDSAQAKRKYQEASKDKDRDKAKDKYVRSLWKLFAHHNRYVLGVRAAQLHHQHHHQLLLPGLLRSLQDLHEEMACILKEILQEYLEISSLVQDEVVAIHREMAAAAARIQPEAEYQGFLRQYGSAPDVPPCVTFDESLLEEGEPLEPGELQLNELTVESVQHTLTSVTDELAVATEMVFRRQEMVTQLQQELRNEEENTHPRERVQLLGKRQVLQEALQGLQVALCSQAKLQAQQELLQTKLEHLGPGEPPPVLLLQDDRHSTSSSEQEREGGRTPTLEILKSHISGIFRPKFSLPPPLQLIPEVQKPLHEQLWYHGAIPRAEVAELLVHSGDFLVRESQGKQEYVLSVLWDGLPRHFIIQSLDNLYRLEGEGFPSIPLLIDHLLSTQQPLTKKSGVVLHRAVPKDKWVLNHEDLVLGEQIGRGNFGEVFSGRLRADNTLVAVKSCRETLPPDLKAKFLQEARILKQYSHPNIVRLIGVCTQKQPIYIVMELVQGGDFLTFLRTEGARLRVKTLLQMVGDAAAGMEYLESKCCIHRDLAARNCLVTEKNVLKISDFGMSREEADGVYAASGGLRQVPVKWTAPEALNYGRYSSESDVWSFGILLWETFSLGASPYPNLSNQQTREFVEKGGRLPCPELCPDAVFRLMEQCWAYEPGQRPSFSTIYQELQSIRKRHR
FGFR1, sequence (P11362 whole entry, looked up): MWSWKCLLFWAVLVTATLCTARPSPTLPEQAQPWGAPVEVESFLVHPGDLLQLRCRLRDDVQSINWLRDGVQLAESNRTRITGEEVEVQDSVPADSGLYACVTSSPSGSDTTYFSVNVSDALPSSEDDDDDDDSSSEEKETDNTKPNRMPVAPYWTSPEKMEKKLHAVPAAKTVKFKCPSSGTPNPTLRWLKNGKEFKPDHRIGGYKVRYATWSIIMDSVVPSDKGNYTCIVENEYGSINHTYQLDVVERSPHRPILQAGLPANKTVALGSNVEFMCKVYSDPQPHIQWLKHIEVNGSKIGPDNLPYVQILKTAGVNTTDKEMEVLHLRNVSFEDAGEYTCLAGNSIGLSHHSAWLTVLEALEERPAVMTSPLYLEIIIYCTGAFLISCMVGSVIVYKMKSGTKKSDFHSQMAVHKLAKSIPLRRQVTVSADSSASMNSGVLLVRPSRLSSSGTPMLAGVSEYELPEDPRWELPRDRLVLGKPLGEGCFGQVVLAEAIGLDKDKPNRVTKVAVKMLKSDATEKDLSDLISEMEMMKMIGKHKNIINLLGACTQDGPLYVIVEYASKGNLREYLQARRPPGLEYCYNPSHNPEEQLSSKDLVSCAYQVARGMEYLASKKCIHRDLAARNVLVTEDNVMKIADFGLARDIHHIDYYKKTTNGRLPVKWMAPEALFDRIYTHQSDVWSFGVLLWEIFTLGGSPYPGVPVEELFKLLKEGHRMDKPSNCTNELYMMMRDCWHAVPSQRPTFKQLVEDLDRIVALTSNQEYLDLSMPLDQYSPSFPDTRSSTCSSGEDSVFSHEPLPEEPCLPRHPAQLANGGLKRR
EPHB1, sequence (P54762 whole entry, looked up): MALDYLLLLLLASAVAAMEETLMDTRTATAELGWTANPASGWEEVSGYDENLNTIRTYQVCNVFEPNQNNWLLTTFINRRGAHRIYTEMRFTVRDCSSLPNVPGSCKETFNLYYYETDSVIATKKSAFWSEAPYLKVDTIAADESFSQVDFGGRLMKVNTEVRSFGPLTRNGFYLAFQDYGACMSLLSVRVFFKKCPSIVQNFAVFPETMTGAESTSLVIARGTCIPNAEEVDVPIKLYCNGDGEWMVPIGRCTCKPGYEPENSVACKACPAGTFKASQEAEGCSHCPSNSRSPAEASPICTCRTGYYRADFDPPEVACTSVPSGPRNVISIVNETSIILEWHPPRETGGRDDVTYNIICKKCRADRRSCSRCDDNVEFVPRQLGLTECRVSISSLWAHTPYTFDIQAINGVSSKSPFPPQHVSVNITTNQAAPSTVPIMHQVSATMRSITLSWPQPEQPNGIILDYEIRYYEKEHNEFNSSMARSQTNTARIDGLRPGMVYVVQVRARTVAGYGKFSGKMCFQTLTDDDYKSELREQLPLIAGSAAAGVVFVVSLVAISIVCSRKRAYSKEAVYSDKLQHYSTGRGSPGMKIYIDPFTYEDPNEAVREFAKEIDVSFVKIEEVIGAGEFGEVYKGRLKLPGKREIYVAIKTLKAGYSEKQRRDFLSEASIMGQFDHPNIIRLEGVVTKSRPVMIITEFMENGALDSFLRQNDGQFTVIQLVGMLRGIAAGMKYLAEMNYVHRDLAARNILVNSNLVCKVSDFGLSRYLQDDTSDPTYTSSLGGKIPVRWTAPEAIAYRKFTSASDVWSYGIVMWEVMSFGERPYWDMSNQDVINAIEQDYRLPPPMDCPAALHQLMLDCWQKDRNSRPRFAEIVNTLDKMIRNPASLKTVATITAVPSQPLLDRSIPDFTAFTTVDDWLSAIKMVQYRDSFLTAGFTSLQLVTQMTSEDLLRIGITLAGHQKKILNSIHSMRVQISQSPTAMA
FGFR3, sequence (P22607 whole entry, looked up): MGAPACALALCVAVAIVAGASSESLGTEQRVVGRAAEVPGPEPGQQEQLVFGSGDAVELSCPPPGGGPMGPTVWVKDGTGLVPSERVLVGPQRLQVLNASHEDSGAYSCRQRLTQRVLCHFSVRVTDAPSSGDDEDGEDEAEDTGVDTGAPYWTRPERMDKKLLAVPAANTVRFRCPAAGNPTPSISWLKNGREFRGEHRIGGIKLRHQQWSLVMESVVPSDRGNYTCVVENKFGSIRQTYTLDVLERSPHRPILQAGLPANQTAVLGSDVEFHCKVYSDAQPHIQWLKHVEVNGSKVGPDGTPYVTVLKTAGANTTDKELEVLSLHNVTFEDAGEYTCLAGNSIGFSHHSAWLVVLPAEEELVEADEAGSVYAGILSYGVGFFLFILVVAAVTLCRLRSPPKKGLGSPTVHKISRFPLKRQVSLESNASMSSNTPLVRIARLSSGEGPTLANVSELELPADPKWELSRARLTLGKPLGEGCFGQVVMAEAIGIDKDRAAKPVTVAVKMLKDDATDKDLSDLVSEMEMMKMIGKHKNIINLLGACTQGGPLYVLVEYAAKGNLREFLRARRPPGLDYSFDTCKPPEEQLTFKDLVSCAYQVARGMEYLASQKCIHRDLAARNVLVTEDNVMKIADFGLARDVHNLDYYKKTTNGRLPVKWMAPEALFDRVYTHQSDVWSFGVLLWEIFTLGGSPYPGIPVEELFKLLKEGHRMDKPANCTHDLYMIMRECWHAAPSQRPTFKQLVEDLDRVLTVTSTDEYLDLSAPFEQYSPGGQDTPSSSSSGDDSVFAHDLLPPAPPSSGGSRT

Sequence	SH2 binding enrichment (Grb2 SH2)	SH2 binding enrichment (SHP2-C SH2)	SH2 binding enrichment (c-Src SH2)	phosphorylation enrichment (AncSZ)	phosphorylation enrichment (EPHB1)	phosphorylation enrichment (EPHB2)	phosphorylation enrichment (FGFR1)	phosphorylation enrichment (FGFR3)	phosphorylation enrichment (Fer (mouse))	phosphorylation enrichment (Fes)	phosphorylation enrichment (Fyn)	phosphorylation enrichment (Hck)	phosphorylation enrichment (Jak2)	phosphorylation enrichment (MERTK)	phosphorylation enrichment (c-Abl (mouse))	phosphorylation enrichment (c-Src)
HSYNSYTYPRL [PAK5_Y316]	1.04	1.12	9.16	0.776	0.472	0.508	0.658	0.532	0.554	0.682	0.449	0.485	0.716	1.78	0.553	0.652
SSREGYVSHHN [FAM83B_Y433]	0.76	0.659	0.449	0.548	0.345	0.321	0.443	0.464	0.326	0.502	0.457	0.354	0.48	0.453	0.445	0.399
LSSNLYFRWLT [CNGA3_Y168_P163L_YF]	0.655	1.01	0.531	1.76	0.783	0.749	1.15	1.51	1.01	1.64	0.595	1.73	5.07	4.32	1.79	1.21
YTHSDYQYSQR [PKP2_Y166]	0.785	0.638	0.595	0.892	0.479	0.482	0.467	0.507	0.42	0.594	0.403	0.391	0.757	0.474	0.444	0.434
ETGEPYRLSPE [EIF4G1_Y311]	0.883	0.75	0.572	1.19	0.733	0.68	0.58	0.783	0.635	1.15	0.505	0.631	1	0.503	0.893	0.527
VFSATYHPDHW [EFCAB12_Y544_P541S_YF]	0.834	0.699	0.565	0.739	0.518	0.519	0.548	0.614	0.55	0.785	0.472	0.466	0.807	0.492	0.676	0.761
PEADKYCLTYA [FGG_Y300_R301C]	0.882	0.778	0.687	1.27	0.722	0.599	0.486	1.09	0.735	1.2	0.691	0.601	1.38	0.477	0.917	0.821
DTKPAYQNLRQ [BOD1_Y82]	11.8	0.666	0.864	0.462	0.38	0.35	0.434	0.452	0.385	0.541	0.383	0.349	0.524	0.313	0.719	0.38
QKFMAYLSQGW [HLCS_Y236_G241W]	0.917	1.5	0.689	1.19	0.812	1.05	0.668	1.14	0.86	1.32	0.639	0.501	1.75	0.83	0.903	0.439
SSNPEYLSASD [INSR_Y999]	0.977	0.642	0.557	1.12	0.514	0.594	0.498	0.695	0.491	1	0.531	0.462	0.961	0.476	0.719	0.458
ALAHKYDGGGG [HBB_Y146_H147D]	0.765	0.357	0.401	0.985	0.464	0.655	0.751	0.494	0.635	0.7	0.367	0.473	0.825	0.54	0.663	0.478
LANNEYYFQVC	0.93	0.576	0.431	3.4	1.63	1.56	15.7	12.9	1.11	1.69	1.43	1.19	2.34	2.08	1.02	1.94
VIEYSYTSADG [DHCR7_Y382_C380Y]	0.927	3.63	6.21	1.34	0.699	0.633	0.711	0.82	0.538	1.19	0.497	0.557	0.897	0.365	0.686	0.536
ANSPVYVPTTR [GATA6_Y188_S184N]	0.834	0.783	0.506	0.506	0.371	0.405	0.419	0.441	0.44	0.667	0.384	0.583	0.821	0.468	0.52	0.448
ANVKWYRNGRE	0.658	0.487	0.512	0.867	0.509	0.578	0.409	0.485	0.457	0.738	0.43	0.484	0.665	0.468	0.479	0.485
LGSVVYAHSKE [KCNQ2_Y226]	0.809	0.754	0.467	0.527	0.473	0.437	0.445	0.419	0.416	0.596	0.407	0.403	0.559	0.424	0.449	0.413
LQEQNYPAVDS [FAM114A1_Y115_L116P]	0.698	0.508	0.655	2.01	1.37	1.26	0.988	1.54	0.878	1.86	0.92	0.739	1.54	0.81	1.13	0.699
FSGIFYKPESL [L2HGDH_Y103_H98Y_YF]	1.17	1.27	0.56	0.968	0.5	0.5	0.436	0.673	0.471	1.03	0.438	0.393	0.935	0.431	0.81	0.611
YEEDSYVKRSQ [RET_Y905]	0.719	0.514	1.43	1.17	0.626	0.643	0.495	0.775	0.529	1.23	0.489	0.49	1.09	0.51	0.714	0.544
IDQDKYAVHFI [FLNA_Y2388_R2391H]	0.711	0.607	0.491	0.886	0.483	0.547	0.468	0.61	0.625	0.945	0.396	0.467	0.801	0.388	0.734	0.433
HRNNNYEPNLF [BRCA2_Y57_K53R]	0.674	0.651	0.668	0.684	1.07	0.858	0.54	0.662	0.552	0.75	0.583	0.465	1.06	0.617	0.509	0.419
DGTGRYLCNAC [GATA5_Y208_H207R]	0.976	0.644	0.487	0.552	0.4	0.4	0.475	0.522	0.362	0.573	0.424	0.375	0.455	0.383	0.523	0.349

The next lines start with results.

SH2 binding enrichment (Grb2 SH2)	SH2 binding enrichment (SHP2-C SH2)	SH2 binding enrichment (c-Src SH2)	Sequence	phosphorylation enrichment (AncSZ)	phosphorylation enrichment (EPHB1)	phosphorylation enrichment (EPHB2)	phosphorylation enrichment (FGFR1)	phosphorylation enrichment (FGFR3)	phosphorylation enrichment (Fer (mouse))	phosphorylation enrichment (Fes)	phosphorylation enrichment (Fyn)	phosphorylation enrichment (Hck)	phosphorylation enrichment (Jak2)	phosphorylation enrichment (MERTK)	phosphorylation enrichment (c-Abl (mouse))	phosphorylation enrichment (c-Src)
0.897	0.609	0.774	SSTAMYSAAGR [PSMB1_Y8_P11A]	0.451	0.35	0.364	0.512	0.342	0.442	0.455	0.403	0.755	0.458	0.511	0.444	0.424
0.79	0.757	0.814	SAPDSYIRIGN [SLC38A4_Y27_G29R]	0.594	0.359	0.396	0.424	0.436	0.35	0.796	0.357	0.47	0.52	0.488	0.483	0.352
0.825	0.567	0.618	EKAEVYGSENE [RIOK2_Y348]	1.11	0.464	0.52	0.455	0.625	0.457	1	0.566	0.464	0.911	0.445	0.609	0.483
0.795	0.788	0.509	YLGEEYVKAVG [TF_Y674]	0.908	0.454	0.391	0.446	0.523	0.393	0.823	0.465	0.329	0.698	0.403	0.645	0.444
0.697	0.617	0.697	RKVAQYMLENE [SLC16A6_Y224_E221V]	0.876	0.612	0.901	0.648	0.933	0.861	0.859	0.716	0.718	1.03	0.465	0.506	0.389
0.963	0.613	0.529	LEFGDCHPLKP [VPS35L_Y32_Y32C]	1.63	0.863	0.802	0.763	1.52	1.24	1.97	0.841	0.777	1.16	0.472	0.884	0.602
1.96	0.798	0.75	RGGDSYGGPPR [RBMX_Y190_R187G]	0.498	0.399	0.5	0.454	0.58	0.441	0.848	0.524	0.656	0.43	0.586	0.735	0.592
1.67	2.13	1.08	DFKIIYIVPMR [SNRNP200_Y540_A542V]	1.09	0.525	0.532	0.55	0.653	0.487	1.11	0.412	0.382	0.952	0.366	1.74	0.42
1.01	0.711	0.621	DEQKKYYNAMK [SCN5A_Y1494_E1489D]	0.874	0.613	0.543	0.575	0.508	0.35	0.772	0.442	0.458	0.531	0.572	0.594	0.39
1.05	0.901	0.476	SDFSRYARTSI [TERT_Y949_S948R_YF]	0.537	0.463	0.466	0.48	0.487	0.358	0.6	0.408	0.484	0.502	0.48	0.502	0.442
0.975	0.726	0.654	SKDSAYVTWEP	0.988	0.518	0.576	1.48	1.06	1.65	0.971	1.5	1.32	0.914	1.14	0.702	1.59

— the supplement of paper PMC10065799, “High-throughput profiling of sequence recognition by tyrosine kinases and SH2 domains using bacterial peptide display” (eLife, 2023)
